Experimental data as given in PMC8196545 (Cell reports, 2021).
Changes are numbered by the printed parent chain.

B1: HC antibody RI808 (IgG1) (antibody, V domains shown)
VH: QIQLRESGPGLVKPSETLTLTCSVSGGSIFPYFYSWIRQPAGKGLEWIGRLFSNSGSVRSNPSMHTRVGFSMDRSRNQVSLTLTSVTAEDTAVYYCVRDIMREYDDINGAGGYYRGVDVWGRGTMVTVSS
VL: NFMLTQPPSVSESPGKTVTISCTRNSGSIASNSVYWYRQRPGSPPTTLIHDNNRRPTGVPDRFSASIDTSSNSASLTISSLKTEDEADYYCQSYDNGNHVIFGGGTNLLVL
B2: HC antibody RI10953 (IgG1) (antibody, V domains shown)
VH: EMRLEESGGALVKPGGSLRLSCVASGFKLSEWSLMWVRQAPGKGLQWVSSISLNQDYISYAGSVRGRFDVFRDRTQTSLLLNMNKLKTEDTGVYFCARVHAWRYFDWVNRRSPVEKVLSIDLWGRGTLVIVSS
VL: SGATQPPSVSVSKGETARITCSGVELSSQYVSWYRQRPGQSPVLVMFHNNSRASRIPERFSASDSGDTATLTIAGAQDVDEAEYYCQTWDSKNYVTFGGGTKLTVL
B3: c9368 (antibody, V domains shown)
VH: QMQLVQSGAELKKPGSSVKVSCKASGGTVSSESVSWVRQAPGHGLEWMGGIIPMFGATNYAQRFQGRVTITADTSTSTAYMELRGLKFEDTAMYYCAREGDPGDYDSGRGLSNAFDIWGQGTMVSVSS
VL: EIVMTQSPGTLSVSPGERATLSCRASQSVSSNLAWYQQKPGQAPRLLIYGASTRATGIPARFIGSGSGTEFTLTISSLQSEDLAIYYCQQYNSWPPQYTFGQGTKLEIK
B4: c13155 (antibody, V domains shown)
VH: DVQLLESGGGLVQPGGSLRLSCAGSGYPFSTSDMGWVRQAPGKGLEWVAAIGRSGDGIHYAESVKGRFTISRDNSNNSIYLQMSDLRGDDTGVYYCAKSGWGWCKRGSCSLTVDYWGQGALVTVSS
VL: EIVLTQSPATLSLSPGERATFSCRASQSVGSYLAWYQQKVGQSPRLLIYDSVNRGEGIPGRFSGRGVGTDFTLTIDAVEPEDFAVYYCQQRQIWPLTFGGGTKLEIK
B5: c8517 (antibody, V domains shown)
VH: QVTLKESGPTLLRPADTLTLTCNFSGFSLTTDGVALGWMRQSPGKAPEWLAFLFYDDDKQYNPHLKSRLIISKASSTNQLVLAMTNMGPGDAGTYFCARLNVLVHDVPPRNYGLDVWGRGITITVSS
VL: DIVLTQSPVSLSVTPGQSASMSCKSSETLLHEDGKSYLYWYLQKPGQSPQLLIYEASKRFSGVSDRFTASGTGTHFTLQIDRVEVDDVGVYYCMENLKALTFGGGTRMEIK
B6: c8553 (antibody, V domains shown)
VH: QVQLVQSGAEMKMPGSSVKVSCKTSGGTFGSDSLNWVRQAPGQGLEWMGAIIPVFRTATYAQKFQGRVTITADTSTSTVSMDFYNLKSEDTAVYFCARFLLTSGDDIRDFFDLWGPGTMVTVSS
VL: PSELTQDPAVSVPLGQTVKISCRGDNLGTYYTSWYQQKAGQAPLAVIYGDNKRPSEIPERFSGSSSGNTASLTITGARAEDEADYYCNSRDKSGSHVVFGGGTKLTVL
B7: c8582 (antibody, V domains shown)
VH: QVHLVQSGAEVKKPGSSVKVSCKASGGSFSDYGISWVRQAPGQGLEWMGGIIPGFETTKFAQGLQGRLTMTADESSSTAYMVLNRLRPQDTGVYYCATTGQQNDYYSSGTSYKLNFYFGMDVWGQGTTVTVSS
VL: QSVLTQPPSSSGTPGQRVTITCSGGSSNIETNSVHWYQQLPGAAPKTVISATHQRPSGVPDRFSASKSGASASLAISGLQSEDEADYYCAVWDDSLNTWVFGGGTKLTVL
B8: c8595 (antibody, V domains shown)
VH: QVKLQESGPGLVKPSETLSLTCVVSGVSISQSDYFWNWLRQTPGKGLEWLGFISYSGDTFFNPSLESRLGMSVDTSSNHISLSLKSMTAADAAVYYCARTFCDDVKCYPLFDSWGHGKLVAVSS
VL: DIVMTQSPDSLPLSPGERASINCQSSQSVLYSSDNRNYLAWYQLKPGQPPKLLIYWASVRASGVPDRFSGSGSGTDFTLSISSLQAEDVAVYYCQQYYITPYSFGQGTKVEIR
B9: c32045 (antibody, V domains shown)
VH: AVQLLESGGGLVKPGGSLRLSCAASGFTFGSYAMHWVRQAPGKGLEWVSSINISSTTYMYYSDSLKGRFTISRDNAKKTLYLQMASLRPEDTAVYYCVREATYCGSQCYSRYFDFWGSGTLVAVSS
VL: DIQMTQSPPSVSAGVGDRVTITCRASQTISGFLSWYQQKPGKAPKLLIYAASTLHSGVPSRFSGSGSGTDFTLTISSLQPEDFATYYCQQSYSAPRTFGQGTKLEIK
B10: c1897 (antibody, V domains shown)
VH: EVQLVQSGAEVKKPGSSVKVSCKGSGGTLNMFALSWVRQAPGQGLEWVGGIIPSFGTTNYAQKFEGRVTITADDSADESTATVHMELSSLRRDDTAVYYCARESSGRADDSLIGYFDRQGEYYFDFWGQGTLVTVSS
VL: DIQMTQSPSTLSASIGDRVTITCRASQSISTLLAWYQQKPGKAPKLLISKASSLQSGVSARFSGSGSGTEFTLTINSLQPDDFATYSCQQYNSHPVTFGQGTKLEIK
B11: c3214 (antibody, V domains shown)
VH: QVQLVQSGAEVKKPGSSVKVSCKASGDNFSGYGINWVRQAPGQGLEWMGRIFPMLPVPSYAQKFQGRVTITADESTNSAYLELTSLRSEDSAVYYCARGTGEGDYFDYWGQGTQVTVSS
VL: DIQMTQSPSSVSASVGDRVTITCRASQGISRYVAWYQQKPGKAPKLLIYAASSLETGVPSRFSGSGSGTDFTLTISSLEPEDFATYYCQQANSFPLTFGGGTKVEIK
B12: c12286 (antibody, V domains shown)
VH: EVHLVESGGGWIHPGMALRLSCAASGFTFEDFAMHWIRQVPGKGLEWVSSITWNGRDTAYADSVKGRFTISRDNAKNSLYLQMNSLRTEDTALYYCVKDSSVSSHYFDSWGQGIMAFVSS
VL: AIQMTQSPSTLSASVGDTVTITCRASQSVSAWLAWYQQKPGKAPKLLIYKASSLQTGVPSRFSGSGSGTEFTLTINSLQPDDFATYSCQQYNFYPWTFGPGTKVEIK
B13: c2842 (antibody, V domains shown)
VH: QVQLVQSGAEMKKPGSSVKVSCKASGGSFRSFTVNWVRQAPGQGLEWVGRIIAIFGSVDYAQKFQGRVTISADESTSTFYMDINSLKSEDTAVYYCVRDGLVGGRDFWGQGTQVTVSS
VL: EIVLTQSPGTLSLSPGERATLFCRASQSIKKNYVAWYQQNPGQAPRLLIYGASSRATGTPDRFRGSGSGTDFTLTISRLEPEDFAVYYCQQYGSAQYSFGQGTKLEIK
B14: c8549 (antibody, V domains shown)
VH: B5 VH with G90A
VL: B5 VL
B15: c13173 (antibody, V domains shown)
VH: EVYLMESGGGLVQPGGSLRLSCEVSGLNRTDYWMHWIRQPPGKGLEWVSRIYSHGGGTTYADSVRGRFSLSRDSAKSTLFLEMNSLRVEDTAIYYCLFSEGDFWGPGTLVTVSS
VL: QSALTQPASLSGSPGQSITISCTGNSSDIGKSDYVSWYRQDPGKAPKLLIYDVSSRLSGISDRFSGSKSDNTASLTISGLQAEDEADYYCSSYTNWDTKVFGTGTRVTVL
B16: c1821 (antibody, V domains shown)
VH: QVQLIQSGAEVKKPGASVKVSCKVSGYTFPEVSMHWVREAPGRGLEWVGGYDPQSAATVYAQRFQGRVTMTEDTSVDTAYMELTSLTSEDTALYFCARSIMIRYGGVIRSFAFDVWGQGTMVIVSS
VL: SSELTQDPAVSVALGQTVTITCQGDSLRQYYATWYQRKPGQAPVLVLSGKNKRFSGIPDRFSGSTSGNSASLTIIGTQAEDEADYYCSSRGSDAYPHYVFGTGTKVTVL
B17: c2718 (antibody, V domains shown)
VH: HVQLQQWGAGLLKPSETLSLTCAVYGESFSVYDWAWIRQSPGKGLEWIGEINHDGGTNYNPSLKSRVTISIDIHLRRFSLSLISVTAADTAIYYCARHIGQLEAFDYWGQGALVTVSS
VL: QSALTQPASVSGSPGQSITISCTGITSDVGDHSYVSWYQQPPGKAPQLIIYDVVNWPPGVSHRFSGSKSGNTASLTITGLRAEDEADYYCASYRRGSSVVFGGGTKVTVL
B18: c7809 (antibody, V domains shown)
VH: QEQRIESVRAAVEPGASLIISCPTSGFDFDRYTMHWVRQAPGKGLEWVAVTSSQGEKKYYSEAVKGRFLITRNNFKRTLYLEMSSLKPEDAGVYYCARSQGYCGTYACYGYYYYMDVWVKGPTVIVSS
VL: QSVLTQPPSVSAAPGEKVAISCSGNTTNIEKNYVAWYQHVPETAPKLLIFENHKRPFGIPDRFSGSKSATSATLGISDLQTADEADYYCQTWDTKLHIWVFGGGTKLTVL
B19: c8567 (antibody, V domains shown)
VH: QQQRVETVKHAVDPGSFLIISCPTSGFTFETYAMHWVRQAPGKGLEWVAATSALGEKKYYSNAVKGRFLITRNNSKRTLYLEMSGLKAEDTAVYYCARSQGYCSDFSCYGYYYYMDVWVKGPTVIVSS
VL: QSVLTQPPSVSAAPGEKVTISCSGNTTNIGNNFVAWYQHLPQNAPKLLIYEDHKRPFGIPDRFSGSKSGTSATLGISGLQTGDEADYYCQTWDAKLLIWIFGGGTKVTVL
B20: c10814 (antibody, V domains shown)
V domain 1: EVRLDQSGTEMRKPGTRVRLSCKVSGHTTSDFFVHWVQQAPQRGPQWMGLINVEDENVIYADIFQGRISIVADTSKKTVFLDLTDLTFEETALYFCATHTLQKDTGDYVAAFDSWGQGTLLYVSS
V domain 2: QSVLTQPPSVSAVPGQKVIISCSGRTSNIGTNFVSWYQQFPGAAPKLLIYDNFNRPSGISDRFSASKSDTSATLAITALQAGDEAEYYCGAWDSGLNPAVFVFGSGTRVFVL
B21: c8639 (antibody, V domains shown)
VH: LLQLHESGPGLVKPSEALSLTCTVSGASATNGLYWAWIRQPPGKGLEWVASLKKWRGYYNPSLGSRVTISHAPDNQISLRLESVTAADAAVYFCVGFFSSSAFDYWGRGTLVTVSS
VL: AYVLTQPPSVSVAPGKTAKISCEGNNIGQKAVHWYQQKSGQAPVLFISDGTTRTSGIPARFSGSRSGNTATLTISWVEGGDEADYYCQVMSGDTALFGGGTKLTVL

Target: gp120 JR-CSF (recombinant) (HIV-1, UniProt P20871)
Test: ELISA

Binder	binding result
B1	binds
B2	binds

Target: HIV-1 NL4-3 Env on infected cells (HIV-1 group M subtype B, NL4-3 (pNL4-3 …, strain))
Test: not given

Binder	binding result
B3	binds
B4	binds
B5	binds
B6	binds
B7	binds
B8	binds
B9	binds
B10	binds
B11	binds
B12	binds
B13	binds
B14	binds
B15	binds
B16	binds
B17	binds
B18	binds
B19	binds
B20	binds
B21	binds
